Assay results as given in patent US20240350441A1, “PHARMACEUTICAL FORMULATION AND A PROCESS FOR ITS PREPARATION” (SAVA HEALTHCARE LTD, priority 2021, published 2024).

Assays:
Format in all cases: in vivo, Female Swiss Albino mice
[1] = tested on: Cyclophosphamide induced hepatotoxicity and renal changes; test: Hepatic and renal parameters in cyclophosphamide induced neutropenia (Example 10); details: for BUN (blood urea nitrogen) / SGOT Serum glutamic oxaloacetic transaminase / SGPT (Serum glutamic pyruvic transaminase) / Serum Creatinine / Uric acid: day 10, G-CSF 2 μg s.c., others 1 tablet per animal per day for 5 days
Procedure: (§1) • 1. To induce neutropenia by administration of cyclophosphamide. • 2.
(§2) Materials: Female Swiss Albino mice weighing between 25-27 g was procured from Global Bioresearch Solutions Pvt Ltd., Pune.
(§3) On day 0, blood was withdrawn from all animals for basal hematological parameters. All the groups of animals except placebo group were injected with 150 mg/kg of cyclophosphamide through intraperitoneal route (i.p.), while group 1 was injected with water for injection, i.p. On Day 3, blood was withdrawn from all animals for Total and differential count (neutrophils, lymphocytes, and monocytes). The animals of group 2 to 7 were dosed with one additional dose of 100 mg/kg cyclophosphamide on Day 4. […] The cyclophosphamide control group was injected with water for injection from day 5 to day 9. On day 10, blood was withdrawn from all animals for total and differential count (neutrophils, lymphocytes, and monocytes), platelets, liver parameters AST (aspartate aminotransferase), ALT (alanine aminotransferase), and renal parameters—serum creatinine, blood urea nitrogen and uric acid.
(§4) • Pure Picroside 1—1 tablet was dissolved in 0.1 ml of sterile water for injection and 0.1 ml was injected as subcutaneous injection. • The degraded Picroside 1 without salt (cinnamic acid of the present disclosure)—1 tablet was dissolved in 0.1 ml of sterile water for injection and 0.1 ml was injected as subcutaneous injection. • The Cinnamic acid low dose (0.6 mg/tablet) treated tablet was dissolved in 0.1 ml of sterile water for injection and 0.1 ml was injected as subcutaneous injection. • The Cinnamic acid high dose treated (6 mg/tablet) tablet was dissolved in 0.1 ml of sterile water for injection and 0.1 ml was injected as subcutaneous injection.

[2] = tested on: Cyclophosphamide induced neutropenia; test: Cyclophosphamide induced neutropenia, hematological parameters (Example 10)
Procedure: as §1, §2, §3, §4

[3] = tested on: Cyclophosphamide induced neutropenia; test: Cyclophosphamide induced neutropenia, hematological changes (Example 9)
Procedure: • 1. To induce neutropenia in mice by administration of cyclophosphamide. • 2. To determine the effect of treatments of pure Picroside 1 and the degraded Picroside 1 with salt on total WBC count, neutrophils, monocyte, lymphocytes and platelet count. • 3. To compare the effect of pure Picroside 1 and the degraded Picroside 1 with salt standard 2 μg G-CSF.
Cyclophosphamide was procured from Sigma Aldrich and G-CSF was procured from marketed formulation of Lupin limited, Lupifil (300). Female Swiss Albino mice weighing between 25-27 g were procured from National Institute of Biosciences, Pune.
(§5) Female Swiss Albino mice were randomized into different groups based on body weight as follows: • Group 1—cyclophosphamide control (CP control), • Group 2—pure Picroside 1 treated, • Group 3—the degraded Picroside 1 with salt and • Group 4—GCSF (granulocyte colony stimulating factor) treated groups. • On day 0, blood was withdrawn from all animals for basal hematological parameters. The animals of all the groups were injected with 150 mg/kg of cyclophosphamide through intraperitoneal route (i.p.). On Day 3, blood was withdrawn from all animals for total and differential count (neutrophils, lymphocytes, and monocytes). The animals were dosed with one additional dose of 100 mg/kg cyclophosphamide on Day 4. From day 5, the animals were administered with respective treatments through oral route in water as vehicle while group 1 was administered with placebo tablets for 5 consecutive days. On day 10, blood was withdrawn from all animals for Total and differential count (neutrophils, lymphocytes, and monocytes), WBCs, Platelets and AST (aspartate aminotransferase) and ALT (alanine aminotransferase).

[4] = tested on: Cyclophosphamide induced hepatotoxicity; test: Cyclophosphamide induced hepatotoxicity, AST/ALT (Example 9); details: for ALT (alanine aminotransferase) / AST (aspartate aminotransferase): day 10, after 5 days treatment from day 5, GCSF 2 μg
Procedure: as §5

[5] = Day 0, basal, G-CSF 2 μg, Picroside tablets groups
[6] = Day 3, after cyclophosphamide, before treatment, G-CSF 2 μg, Picroside tablets groups
[7] = Day 10, treated day 5 for 5 days, G-CSF 2 μg s.c., others 1 tablet per animal per day
[8] = Day 0, basal, before cyclophosphamide
[9] = Day 3, after cyclophosphamide 150 mg/kg i.p., before treatment
[10] = Day 10, after 5 days treatment from day 5, GCSF 2 μg
[11] = compared to cyclophosphamide control group, Example 9
[12] = vs CP control, cinnamic acid at both 0.6 mg/tablet low dose and 6 mg/tablet high dose
[13] = vs CP control, day 10, cinnamic acid at both 0.6 mg/tablet low dose and 6 mg/tablet high dose

## O=C(/C=C/c1ccccc1)OC[C@H]1O[C@@H](O[C@@H]2OC=C[C@H]3[C@H](O)[C@@H]4O[C@]4(CO)[C@@H]23)[C@H](O)[C@@H](O)[C@@H]1O [Pure Picroside 1, Picroside 1]
[1]
  BUN (blood urea nitrogen): 9.483 mmol/L
  SGOT Serum glutamic oxaloacetic transaminase: 25.67 IU/L
  SGPT (Serum glutamic pyruvic transaminase): 28.5 IU/L
  Serum Creatinine: 46.8 µM
  Uric acid: 30.00 mg/L
[1]; inference from table 8B, as compared to GCSF
  Hepatic and renal parameters in neutropenic animal model: improved hepatic and renal parameters
[2]; [5]
  % Lymphocytes: 44.33%
  % Monocytes: 6.00%
  % Neutrophils: 41.00%
  No of Platelets: 735700 per cu · mm of blood
  Total WBC Count: 7301 per cu · mm of blood
[2]; [6]
  % Lymphocytes: 84%
  % Monocytes: 1.50%
  % Neutrophils: 6.50%
  No of Platelets: 631700 per cu · mm of blood
  Total WBC Count: 2365 per cu · mm of blood
[2]; [7]
  % Lymphocytes: 58.67%
  % Monocytes: 5.00%
  % Neutrophils: 28.33%
  No of Platelets: 626800 per cu · mm of blood
  Total WBC Count: 3674 per cu · mm of blood
[2]; inference from table 8A
  Anti-neutropenic activity (words): shows better anti-neutropenic activity
[3]; [8]
  % Lymphocytes: 40.32 ± 1.56%
  % Monocytes: 7.32 ± 0.32^ %
  % Neutrophils: 43 ± 0.68%
  Platelet Count: 741600 ± 3476 per cu · mm of blood
  WBC Count: 7410 ± 414.90 per cu · mm of blood
[3]; [9]
  % Lymphocytes: 80.00 ± 1.92%
  % Monocytes: 1.50 ± 0.34^ %
  % Neutrophils: 7 ± 0.92%
  Platelet Count: 647900 ± 26900 per cu · mm of blood
  WBC Count: 1562 ± 145.90 per cu · mm of blood
[3]; [10]
  % Lymphocytes: 72.00 ± 1.46 %
  % Monocytes: 4.50 ± 0.34 %
  % Neutrophils: 12.66 ± 0.66 %
  Platelet Count: 653300 ± 26550 per cu · mm of blood
  WBC Count: 4380 ± 333.30 per cu · mm of blood
[3]; [11]
  Effect on % lymphocytes: significant (p<0.01) reduction in % lymphocytes
  Effect on % monocytes: significantly reversed
  Effect on platelet count: improved the platelet count significantly (p<0.001)
  Effect on total WBC count: significantly (p<0.001) reversed the cyclophosphamide induced decrease in WBC count
[3]; compared to cyclophosphamide/placebo control group, Example 9
  Effect on % neutrophil: significantly (p<0.01) alleviated the cyclophosphamide-induced neutropenia
[4]; [11]
  Effect on ALT: significant reversal (p<0.001)
  Effect on AST: significant (p<0.001) decrease in AST
[4]
  ALT (alanine aminotransferase): 37.32 ± 0.66 IU/L
  AST (aspartate aminotransferase): 43.66 ± 2.68 IU/L

B1: GCSF: glycoprotein that stimulates the bone marrow to produce granulocytes and stem cells; marketed formulation of Lupin limited (protein, UniProt P09919 31-207, looked up)
Granulocyte …: TPLGPASSLPQSFLLKCLEQVRKIQGDGAALQEKLVSECATYKLCHPEELVLLGHSLGIPWAPLSSCPSQALQLAGCLSQLHSGLFLYQGLLQALEGISPELGPTLDTLQLDVADFATTIWQQMEELGMAPALQPTQGAMPAFASAFQRRAGGVLVASHLQSFLEVSYRVLRHLAQP
modifications: filgrastim (Lupifil)
notes: glycoprotein that stimulates the bone marrow to produce granulocytes and stem cells; marketed formulation of Lupin limited
[1]
  BUN (blood urea nitrogen): 9.633 mmol/L
  SGOT Serum glutamic oxaloacetic transaminase: 32.17 IU/L
  SGPT (Serum glutamic pyruvic transaminase): 34.33 IU/L
  Serum Creatinine: 44.5 µM
  Uric acid: 26.33 mg/L
[1]; [12]
  Effect on BUN level: significant (p<0.001) decrease in BUN level
  Effect on SGOT level: significant (p<0.001) reduction in SGOT
  Effect on serum creatinine level: significant (p<0.001) reduction in creatinine level
  Effect on uric acid level: significant decrease in uric acid levels (p<0.001)
[2]; [5]
  % Lymphocytes: 45.5%
  % Monocytes: 6.00%
  % Neutrophils: 41.33%
  No of Platelets: 752200 per cu · mm of blood
  Total WBC Count: 7255 per cu · mm of blood
[2]; [6]
  % Lymphocytes: 83.5%
  % Monocytes: 1.833%
  % Neutrophils: 6.667%
  No of Platelets: 645800 per cu · mm of blood
  Total WBC Count: 2617 per cu · mm of blood
[2]; [7]
  % Lymphocytes: 50.17%
  % Monocytes: 5.167%
  % Neutrophils: 36.67%
  No of Platelets: 674900 per cu · mm of blood
  Total WBC Count: 6030 per cu · mm of blood
[2]; [13]
  Effect on % lymphocytes: significant (p<0.001) decrease in % lymphocytes
  Effect on % monocytes: significantly (p<0.001) reversed
  Effect on platelet count: significant (p<0.05) increase in platelet count
  Effect on total WBC count: significantly (p<0.001) reversed the cyclophosphamide induced decrease in WBC count
[3]; [8]
  % Lymphocytes: 40.00 ± 3.22%
  % Monocytes: 7.32 ± 0.42%
  % Neutrophils: 42.16 ± 1.74%
  Platelet Count: 732400 ± 7528 per cu · mm of blood
  WBC Count: 7438 ± 626.20 per cu · mm of blood
[3]; [9]
  % Lymphocytes: 82.50 ± 1.40%
  % Monocytes: 1.32 ± 0.22%
  % Neutrophils: 7.16 ± 0.48%
  Platelet Count: 637100 ± 38470 per cu · mm of blood
  WBC Count: 1580 ± 235.00 per cu · mm of blood
[3]; [10]
  % Lymphocytes: 59.32 ± 2.24 %
  % Monocytes: 5.66 ± 0.48 %
  % Neutrophils: 26.00 ± 1.66 %
  Platelet Count: 690300 ± 15510 per cu · mm of blood
  WBC Count: 4518 ± 406.00 per cu · mm of blood
[3]; [11]
  Effect on % lymphocytes: reversed cyclophosphamide-induced lymphocyte recruitment significantly (p<0.001)
  Effect on platelet count: significant increase in platelet count
  Effect on total WBC count: significantly (p<0.001) reversed the cyclophosphamide induced decrease in WBC count
[4]; [11]
  Effect on AST: significant (p<0.001) reduction in AST
[4]
  ALT (alanine aminotransferase): 36.16 ± 0.70 IU/L
  AST (aspartate aminotransferase): 45.16 ± 2.72 IU/L
